The results in this text go back to US20190119403A1 (published 2019).

This assay has as its target human cathepsin B (Recombinant Human Procathepsin B, Novoprotein, converted into active form) (human, UniProt P07858 80-333). As to the kind of experiment: enzyme inhibition.

B1: Stefin A-derived antibody Fab (Fab, V domains shown)
VH: not shown
VL: DIQMTQSPSSLSASVGDRVTITCRASQDVNVVAGTTAVAWYQQKPGKAPKLLIYGGSKSLPGQNEDLSGGFLYSGVPSRFSGSRSGTDFTLTISSLQPEDFATYYCQQHLGGPITTPPTFGQGTKLEIKR
For orientation: Ki means the dissociation constant of the complex between target and ligand, obtained from inhibition or displacement. Regarding B1, the Ki amounted to 225 nM.
